Starred links: 1 amine or outer side, 2 acyl side, 3 side chain; linkers in the order of their positions; H or OH if unused. Non-standard residues stand in square brackets, D forms with d. 3Pal4CO2H = 5-[(2S)-2-amino-2-carboxy-ethyl]pyridine-2-carboxylic acid, O=C([C@H](Cc1ccc(C(=O)[*:3])nc1)N[*:1])[*:2]; TyrEtNAc = (2S)-3-[4-(2-acetamidoethoxy)phenyl]-2-amino-propanoic acid, CC(=O)NCCOc1ccc(C[C@H](N[*:1])C(=O)[*:2])cc1; dPro(4R-(4-pyridylmethyl)) = O=C(O)[C@H]1C[C@@H](Cc2ccncc2)CN1; Trp(βS-Me,4-F) = C[C@@H](c1c[nH]c2cccc(F)c12)[C@H](N)C(=O)O; Bip(4'-COOH) = N[C@@H](Cc1ccc(-c2ccc(C(=O)O)cc2)cc1)C(=O)O; Ala(1-bicyclo(1.1.1)pentyl) = N[C@@H](CC12CC(C1)C2)C(=O)O; dPro(4R-Bzl(4-F)) = O=C(O)[C@H]1C[C@@H](Cc2ccc(F)cc2)CN1; Ala(pyrimidin-5-yl) = N[C@@H](Cc1cncnc1)C(=O)O; Phe(4-COOH) = N[C@@H](Cc1ccc(C(=O)O)cc1)C(=O)O; Pro(cis-4-F) = O=C(O)[C@@H]1C[C@H](F)CN1; 4Pal = N[C@@H](Cc1ccncc1)C(=O)O; αMeS = C[C@](N)(CO)C(=O)O; Dab = NCC[C@H](N)C(=O)O; Dap = NC[C@H](N)C(=O)O; Aib = CC(C)(N)C(=O)O
B1: SEQ ID NO: 95 (peptide)
peptide: cyclo([TyrEtNAc][4Pal][Phe(4-COOH)]G[Pro(cis-4-F)][Trp(βS-Me,4-F)][Aib]EW[Aib][4Pal]Q[Dab]G[dPro(4R-Bzl(4-F))])
SMILES: CC(=O)NCCOc1ccc(C[C@@H]2NC(=O)[C@H]3C[C@@H](Cc4ccc(F)cc4)CN3C(=O)CNC(=O)[C@H](CCN)NC(=O)[C@H](CCC(N)=O)NC(=O)[C@H](Cc3ccncc3)NC(=O)C(C)(C)NC(=O)[C@H](Cc3c[nH]c4ccccc34)NC(=O)[C@H](CCC(=O)O)NC(=O)C(C)(C)NC(=O)[C@H]([C@@H](C)c3c[nH]c4cccc(F)c34)NC(=O)[C@@H]3C[C@H](F)CN3C(=O)CNC(=O)[C@H](Cc3ccc(C(=O)O)cc3)NC(=O)[C@H](Cc3ccncc3)NC2=O)cc1
B2: SEQ ID NO: 96 (peptide)
peptide: cyclo([Bip(4'-COOH)][Ala(1-bicyclo(1.1.1)pentyl)][Phe(4-COOH)]G[Pro(cis-4-F)][Trp(βS-Me,4-F)][Aib]EW[Aib][Dap]QSG[dPro(4R-(4-pyridylmethyl))])
SMILES: C[C@@H](c1c[nH]c2cccc(F)c12)[C@@H]1NC(=O)[C@@H]2C[C@H](F)CN2C(=O)CNC(=O)[C@H](Cc2ccc(C(=O)O)cc2)NC(=O)[C@H](CC23CC(C2)C3)NC(=O)[C@H](Cc2ccc(-c3ccc(C(=O)O)cc3)cc2)NC(=O)[C@H]2C[C@@H](Cc3ccncc3)CN2C(=O)CNC(=O)[C@H](CO)NC(=O)[C@H](CCC(N)=O)NC(=O)[C@H](CN)NC(=O)C(C)(C)NC(=O)[C@H](Cc2c[nH]c3ccccc23)NC(=O)[C@H](CCC(=O)O)NC(=O)C(C)(C)NC1=O
B3: SEQ ID NO: 97 (peptide)
peptide: cyclo([Bip(4'-COOH)][Ala(1-bicyclo(1.1.1)pentyl)][Phe(4-COOH)]G[Pro(cis-4-F)][Trp(βS-Me,4-F)][αMeS]SW[Aib]SQ[Dab]G[dPro(4R-Bzl(4-F))])
SMILES: C[C@@H](c1c[nH]c2cccc(F)c12)[C@@H]1NC(=O)[C@@H]2C[C@H](F)CN2C(=O)CNC(=O)[C@H](Cc2ccc(C(=O)O)cc2)NC(=O)[C@H](CC23CC(C2)C3)NC(=O)[C@H](Cc2ccc(-c3ccc(C(=O)O)cc3)cc2)NC(=O)[C@H]2C[C@@H](Cc3ccc(F)cc3)CN2C(=O)CNC(=O)[C@H](CCN)NC(=O)[C@H](CCC(N)=O)NC(=O)[C@H](CO)NC(=O)C(C)(C)NC(=O)[C@H](Cc2c[nH]c3ccccc23)NC(=O)[C@H](CO)NC(=O)[C@](C)(CO)NC1=O
B4: SEQ ID NO: 98 (peptide)
peptide: cyclo([Bip(4'-COOH)][Ala(1-bicyclo(1.1.1)pentyl)][3Pal4CO2H]G[Pro(cis-4-F)][Trp(βS-Me,4-F)][Aib]EW[Aib][Ala(pyrimidin-5-yl)]Q[Dab]G[dPro(4R-Bzl(4-F))])
SMILES: C[C@@H](c1c[nH]c2cccc(F)c12)[C@@H]1NC(=O)[C@@H]2C[C@H](F)CN2C(=O)CNC(=O)[C@H](Cc2ccc(C(=O)O)nc2)NC(=O)[C@H](CC23CC(C2)C3)NC(=O)[C@H](Cc2ccc(-c3ccc(C(=O)O)cc3)cc2)NC(=O)[C@H]2C[C@@H](Cc3ccc(F)cc3)CN2C(=O)CNC(=O)[C@H](CCN)NC(=O)[C@H](CCC(N)=O)NC(=O)[C@H](Cc2cncnc2)NC(=O)C(C)(C)NC(=O)[C@H](Cc2c[nH]c3ccccc23)NC(=O)[C@H](CCC(=O)O)NC(=O)C(C)(C)NC1=O

biological target: Recombinant human IL-1β (BioLegend 579404) (human, UniProt P01584 117-269); assay: cell-based or functional assay

| Binder | MRC5 IC50 [pM] |
| --- | --- |
| B1 | 54 |
| B2 | 67 |
| B3 | 36 |
| B4 | 58 |

Source: patent publication US20260242419A1, “A CYCLIC PEPTIDE FOR TRAPPING INTERLEUKIN-1 BETA” (Merck Sharp & Dohme LLC, priority 2023, published 2026)
